Measurements reported in patent publication US5942405A, “Therapeutic and screening methods using C3a receptor and C3a” (priority 1997, dated 1999).
“Also recorded” adds a separate entry of the source.

Legend:
C3a Receptor = biological target: T1, C3a Receptor (Homo sapiens, UniProt Q16581); experiment: C3a binding to HEK 293 cells stably expressing C3a Receptor mRNA; design: cDNA encoding a complete orphan GPCR of 482 amino acids; expressed in transfected cells; settings: data not shown
T1 sequence (Q16581 1-482 F151C): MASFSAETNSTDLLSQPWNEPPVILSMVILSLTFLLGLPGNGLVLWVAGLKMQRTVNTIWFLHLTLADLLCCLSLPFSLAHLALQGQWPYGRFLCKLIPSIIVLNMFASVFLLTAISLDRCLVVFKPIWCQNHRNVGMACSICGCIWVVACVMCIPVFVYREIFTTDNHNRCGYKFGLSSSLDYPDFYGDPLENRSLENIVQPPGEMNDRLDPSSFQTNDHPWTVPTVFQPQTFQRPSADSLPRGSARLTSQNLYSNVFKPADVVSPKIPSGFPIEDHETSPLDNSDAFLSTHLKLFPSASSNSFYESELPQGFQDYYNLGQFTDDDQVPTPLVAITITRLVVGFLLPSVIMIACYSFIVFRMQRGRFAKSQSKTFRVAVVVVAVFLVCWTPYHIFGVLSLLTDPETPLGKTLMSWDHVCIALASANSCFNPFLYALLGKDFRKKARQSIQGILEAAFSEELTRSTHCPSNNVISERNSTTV
From the text: C3a was radioiodinated and used in whole cell binding assays to further characterize C3a Receptor. […] Curiously, HEK 293 cells stably expressing C3a Receptor mRNA by Northern Blot, neither bound nor responded to C3a (data not shown).

C5a-R = experiment: Electrophysiological response (Ca2+ mediated chloride currents, two electrode voltage clamp) of Xenopus oocytes injected with C5a-R cRNA; assay type: cell-based, human; settings: oocytes co-injected with C5a-R cRNA (10 ng) and U937 RNA (25 ng), ligands 10 nM
Description: (A) Electrophysiological response of Xenopus oocytes injected with cRNA for C3a Receptor (10 ng), total U937 RNA (25 ng), or a mixture of C3a Receptor (10 ng) and U937 RNA (25 ng) to 10 nM rC5a, 10 nM C3a analogue peptide, 10 nM platelet activating factor (PAF), 10 nM fMetLeuPhe. Inset, represents typical response of oocytes co-injected with C3a Receptor cRNA+U937 RNA to 10 nM C3a. (B) Electrophysiological response of oocytes injected with C5a-R cRNA (10 ng), U937 RNA (25 ng) or a mixture of C5a-R and U937 RNA, to 10 nM rC5a or 10 nM C3a analogue peptide. […] Calcium mobilization by Fura 2 loaded cells expressing C5a receptor (FIGS. 4A & 4C) or C3a Receptor (FIGS. 4B & 4D) in response to rC5a (10 nM, FIG. 4A or 100 nM, FIG. 4B) or C3a analogue peptide (1 uM, FIGS. 4C & 4D).
Commercially prepared (Clontech, Palo Alto, Calif.) multiple tissue blots containing approximately 2 μg poly-A mRNA per lane were sequentially hybridized with random primer ^32 P-labeled cDNAs spanning the coding regions of C5a-R and C3a Receptor. C5a-R was cloned via PCR from differentiated U937 RNA. Final washing step was carried out twice in 0.5× SSC, 1% SDS at 65° C. for 20 min.
Capped cRNA transcripts were generated from linearized C3a Receptor and C5a-R plasmid DNA as previously described (Kumar, C. S., et al (1989) J. Biol. Chem. 264, 17939-17946) and suspended in sterile water at a concentration of 0.2 μg/μl. […] Results represent average response determined in three separate experiments.
The chemotactic receptors for C5a and the fMLP-R have previously been functionally expressed in Xenopus laevis oocytes (Kroll, B., et al (1991) FEBS Lett. 291, 208-210; Murphy, P. M. & McDermott, D. (1991) J Biol. Chem. 266, 12560-12567; Murphy, P. M., Gallin, E. K., and Tiffany, H. L. (1990) J Immunol. 145, 2227-2234; Schultz, P., et al (1992) Cellular Signalling 4, 153-161) and, unlike all other GPCRs tested in this system, injection of cRNA for the cloned chemotactic receptors alone is insufficient to stimulate signal transduction in response to ligand binding (Kroll, B., et al (1991) FEBS Lett. 291, 208-210; Murphy, P. M. & McDermott, D. (1991) J Biol. Chem. 266, 12560-12567). Functional expression of both of these chemotactic receptors, as monitored by induction of Ca^2+ mediated chloride currents, requires the co-injection of a complimentary human factor which can be supplied by total RNA from myeloid or liver cells (Kroll, B., et al (1991) FEBS Lett. 291, 208-210; Murphy, P. M. & McDermott, D. (1991) J Biol. Chem. 266, 12560-12567). […]

guinea pig ileal tissue = settings: C3a and C4a; cited from earlier work

What does the source list for “C3a: C3a was purchased from Advanced Research Technologies, San Diego; anaphylatoxin; radioiodinated for binding”?
binding of C3a to HEK 293 cells expressing C3a Receptor mRNA (C3a Receptor): neither bound; electrophysiological response of oocytes expressing C5a-R (C5a-R): smaller response; also recorded: respond; electrophysiological response of oocytes expressing C5a-R (C5a-R; listed as native ligand): elicited similar responses; cross desensitization of guinea pig ileal tissue (guinea pig ileal tissue): cross desensitize

B1: rC5a: Human rC5a was expressed in E. coli and purified to homogeneity (protein, UniProt P01031 678-751, looked up)
C5a anaphylatoxin: TLQKKIEEIAAKYKHSVVKKCCYDGACVNNDETCEQRAARISLGPRCIKAFTECCVVASQLRANISHKDMQLGR
modifications: C5a anaphylatoxin recombinant, E. coli
notes: Human rC5a was expressed in E. coli and purified to homogeneity
With B1 as the molecule, how does the “electrophysiological response of oocytes expressing C5a-R” value (C5a-R) read?
Its value is “induced rapid activation of chloride currents”.

And the “electrophysiological response of oocytes expressing C5a-R” value (C5a-R; listed as C5a)?
Its value is “respond”.
